Reference: patent US20090048168A1 (CASE WESTERN RESERVE UNIVERSITY, published 2009)

Columns and labels:
YFP-IP3R type 1 = assay: acceptor photobleaching FRET, fixed COS-7 cells expressing YFP-IP3R and CFP-Bcl-2
[1] = target: Bcl-2 exogenously expressed in WEHI7.2 cells (UniProt P10415 1-239); assay: cell-based or functional assay
Chain of Bcl-2 exogenously expressed in WEHI7.2 cells (P10415 whole entry): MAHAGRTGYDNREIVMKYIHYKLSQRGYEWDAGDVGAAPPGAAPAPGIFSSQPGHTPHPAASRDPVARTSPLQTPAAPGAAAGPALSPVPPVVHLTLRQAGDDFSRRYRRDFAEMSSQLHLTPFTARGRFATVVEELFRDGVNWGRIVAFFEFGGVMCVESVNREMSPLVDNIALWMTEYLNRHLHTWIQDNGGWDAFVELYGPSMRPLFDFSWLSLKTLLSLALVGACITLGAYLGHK

increase of CFP signal following YFP bleaching (FRET) (YFP-IP3R type 1)	anti-CD3-induced apoptosis in Bcl-2(+) WEHI7.2 cells, fold enhancement [1]	Molecule
28%		CFP-Bcl-2 (from UniProt P10415 1-239)
	2 fold	NVYTEIKCNSLLPLDDIVRV [peptide 2, aa 1389-1408 of IP3R]
